Reference: the supplement of paper PMC10567573

B1: MCOLN1 (parent)
chain: EEEDLRRRLKYFFMSPCDKFRAKG
B2: SEC22B (parent)
chain: AKQLFRKLNEQSPTRCTLEAGAMT

Variants of: B1
Test: protein stability index of a GFP-peptide fusion (GPS, HEK-293T) (PSI 1-6); higher = more stable
Conditions: c terminus: a fixed tail appended
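Also: lentivirally expressed fusions sorted by FACS into six bins by GFP to DsRed ratio, PSI derived from sequencing read proportions per bin multiplied by bin number.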

Protein stability index of substitutions, site by site:
R6: F 1.59 | T 2.66 | G 2.99 | C 2.85
L9: K 2.89 | N 3.5 | H 3.32
K23: D 3.56 | R 2.65
L5: G 3.05 | W 2.91 | K 3.2 | T 3.65 | V 3.09 | E 3.53
R7: C 2.38 | T 2.65 | S 2.82 | L 2.29 | E 3.33 | N 2.55 | D 3.01 | H 2.73
C17: A 2.21 | K 2.1 | H 2.61 | R 1.58 | T 2.19
D4: F 1.42 | Q 1.57 | T 2.49 | C 1.8 | R 2.23 | E 2.08
P16: S 2.81 | L 1.7 | Q 1.84 | H 2.09
D18: Y 2.67 | V 2.44 | K 1.94
E2: H 2.72 | I 2.21
F20: G 3.04 | S 3.58 | Y 2.28 | Q 3.23
R21: V 2.56 | S 3.1 | F 2.4 | H 3.28 | M 2.72
G24: A 2.43 | D 2.4
E3: K 1.87 | Q 1.5
Y11: G 3.2 | L 2.23 | D 2.87 | W 1.42
E1: I 2.19
A22: T 2.19 | Y 1.88 | W 1.36 | K 2.5 | I 1.91 | H 2.52
M14: E 2.65 | A 3.27 | Q 3.04 | D 3.23 | W 3.05 | L 2.14 | R 2.73 | N 3.3
F13: G 3.78 | A 3.88 | M 2.67
S15: G 2.77 | Y 2.62 | K 2.63 | A 2.42
K10: N 3.21 | Q 2.26 | A 2.15
R8: S 2.67 | I 1.76 | L 2.1 | E 3.21
F12: W 2.39 | G 3.43 | A 3.53 | R 2.91 | P 3.56
K19: T 3.01 | F 2.21 | N 2.48 | H 2.65

Variants of: B2
Test: as above
Conditions: c terminus: a fixed tail appended

Protein stability index, by site and new letter:
A22: S 2.27 | E 2.53 | I 2.17 | T 1.84 | D 2.33 | C 2.07 | N 2.8 | L 1.58 | F 1.49 | M 2.07 | K 1.79 | V 1.89 | W 3.6 | Y 2.41 | R 2.14 | G 2.35 | P 2.25 | Q 1.88 | H 1.82
G21: E 2.56 | D 2.99 | K 2.11 | N 2.18 | V 4.07 | S 2.51 | Q 1.68 | R 2.4 | A 1.96 | F 2.42 | W 1.61 | L 2.12 | H 1.94 | M 1.34 | P 2.38 | C 2.58 | I 1.88 | Y 1.95 | T 1.86
T24: Q 2.39 | W 2.19 | E 2.09 | Y 2.36 | K 2.29 | G 2.49 | D 2.39 | L 2.13 | A 1.82 | P 1.72 | V 1.99 | H 2.06 | S 2.19 | M 2.59 | R 2.14 | I 1.92 | F 1.99 | N 1.98 | C 2.26
C16: L 3.19 | T 3.64 | N 3.74 | P 3.96 | Y 2.79 | Q 3.47 | D 3.93 | M 3.08 | G 3.93 | S 3.66 | E 3.85 | I 3.12 | A 3.07 | R 3.27 | H 3.47 | F 2.15 | W 2.52 | K 2.95 | V 2.53
E19: K 2.47 | T 2.56 | M 2.15 | F 1.41 | I 1.64 | Y 2.18 | A 2.28 | S 2.94 | H 2.46 | L 2.35 | P 2.99 | W 2.22 | D 3.05 | Q 2.87 | C 2.52 | N 2.95 | R 2.49 | V 1.75 | G 2.12
R15: F 2.41 | K 3.2 | M 2.71 | I 2.76 | P 3 | H 3.44 | V 3.01 | Q 3.55 | L 3.03 | E 2.81 | C 2.8 | T 2.67 | A 3.03 | G 3.15 | W 1.97 | N 3.19 | S 2.44 | Y 2.82 | D 4.3
A20: F 1.34 | Y 2.01 | E 3.22 | D 3.07 | K 3.02 | L 2.27 | N 3.08 | C 1.64 | H 2.47 | G 3.5 | S 2.99 | R 2.77 | P 2.65 | Q 2.87 | V 2.49 | T 2.96 | W 1.59 | M 3.4 | I 2.27
T17: G 1.69 | E 3.23 | M 2.46 | I 1.86 | C 2.4 | P 2.77 | F 1.6 | H 2 | W 2.28 | R 2.69 | A 1.81 | Q 2.4 | K 1.94 | Y 1.61 | N 2.22 | D 3.48 | L 2.13 | V 2.18 | S 1.81
T14: M 1.79 | L 1.94 | N 1.98 | I 2.55 | C 3.02 | G 1.74 | V 2.06 | Y 1.99 | W 2.01 | S 1.89 | R 2.38 | P 2.35 | A 1.68 | F 1.63 | Q 1.86 | D 3.27 | K 2.41 | E 3.53 | H 1.81
S12: M 2.37 | T 1.96 | R 1.4 | N 1.93 | W 1.77 | P 1.68 | Q 2.16 | Y 2.43 | V 1.45
P13: C 1.53 | M 1.82 | F 1.77 | L 2.08 | Q 1.98 | V 2.46 | G 1.96 | R 2.73 | S 1.58 | A 2.48 | Y 1 | E 2.81 | I 1.61 | H 1.7 | K 1.88 | D 3.06 | N 1.86 | T 2.14
M23: E 2.59 | Y 2.37 | R 2.26 | A 2.09 | N 2.61 | P 2.7 | F 1.72 | W 2.19 | I 2.04 | T 2.22 | S 2.7 | L 2.47 | H 2.25 | D 2.77 | C 2.18 | G 2.85 | Q 2.81 | V 1.81 | K 2.45
L18: C 2.66 | R 2.46 | E 3.47 | N 3.17 | G 2.48 | A 3.25 | S 3.26 | I 2.35 | F 2.09 | V 2.78 | H 2.64 | Y 1.89 | D 3.92 | K 2.7 | W 1.94 | T 2.84 | P 3.24 | Q 2.71 | M 2.16
